This assay addresses T1, mouse interleukin 11 receptor alpha chain 1 (mouse, UniProt Q64385 24-372).
T1 sequence (looked up): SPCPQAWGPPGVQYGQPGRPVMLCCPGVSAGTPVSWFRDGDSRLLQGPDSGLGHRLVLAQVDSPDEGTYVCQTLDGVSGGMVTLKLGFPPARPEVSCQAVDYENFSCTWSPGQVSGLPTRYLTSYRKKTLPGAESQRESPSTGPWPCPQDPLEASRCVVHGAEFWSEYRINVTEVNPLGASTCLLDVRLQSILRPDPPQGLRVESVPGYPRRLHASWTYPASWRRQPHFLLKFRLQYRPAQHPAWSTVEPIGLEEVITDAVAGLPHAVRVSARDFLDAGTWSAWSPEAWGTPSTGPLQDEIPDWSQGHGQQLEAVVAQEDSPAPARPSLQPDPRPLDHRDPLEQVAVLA
As to the kind of experiment: SPR.

Data on 2 molecules can be found in article doi:10.1101/830018 (bioRxiv, 2019).

B1: recombinant mouse IL11 (ligand, UniProt P47873 22-199, looked up)
chain: PGPPAGSPRVSSDPRADLDSAVLLTRSLLADTRQLAAQMRDKFPADGDHSLDSLPTLAMSAGTLGSLQLPGVLTRLRVDLMSYLRHVQWLRRAGGPSLKTLEPELGALQARLERLLRRLQLLMSRLALPQAAPDQPVIPLGPPASAWGSIRAAHAILGGLHLTLDWAVRGLLLLKTRL
With B1, the affinity, expressed as Kd, was 94 nM.

B2: recombinant human interleukin 11 (ligand, UniProt P20809 22-199, looked up)
chain: PGPPPGPPRVSPDPRAELDSTVLLTRSLLADTRQLAAQLRDKFPADGDHNLDSLPTLAMSAGALGALQLPGVLTRLRADLLSYLRHVQWLRRAGGSSLKTLEPELGTLQARLDRLLRRLQLLMSRLALPQPPPDPPAPPLAPPSSAWGGIRAAHAILGGLHLTLDWAVRGLLLLKTRL
On to B2, for which binding was put at a Kd of 72 nM.
